Laboratory results from paper PMC8125140.

How the values were obtained:
[1] = molecular target: γ2-GABAA subunit fused with a superecliptic pHluorin (SEP) tag (UniProt P18508)
[2] = molecular target: γ2-GABAA subunit fused with a superecliptic pHluorin (SEP) tag (UniProt P18508); remark: listed apart in the source
[3] = molecular target: γ2-GABAA subunit fused with a superecliptic pHluorin (SEP) tag (UniProt P18508); remark: listed apart in the source
[4] = molecular target: γ2-GABAA receptor (endogenous) (rat (endogenous in hippocampal neurons)) (UniProt P18508)

Substance | diffusion coefficient median of SEP-γ2-GABAARs at inhibitory synaptic sites with the disrupting peptide TATD5Ct (10 µM); control 1.81 10^−2 µm^2/s [1] [µm^2/s] | explored area of SEP-γ2-GABAARs at inhibitory synapses with the disrupting peptide TATD5Ct (10 µM); control 0.30 10^−2 [1] [µm^2/s] | immobile fraction (D < 0.005 µm^2/s) of SEP-γ2-GABAARs at inhibitory synapses, single nanoparticle tracking, after the disrupting peptide TATD5Ct (10 µM, 10 min); control 33% [1] [%] | diffusion coefficient median of SEP-γ2-GABAARs at excitatory synapses with the disrupting peptide TATD5Ct (10 µM); control 3.15 10^−2 µm^2/s; no change (p = 0.13) [2] [µm^2/s] | explored area of SEP-γ2-GABAARs at excitatory synapses with the disrupting peptide TATD5Ct (10 µM); control 0.60 10^−2 µm^2; unchanged (p = 0.097) [2] [µm^2] | immobile fraction of SEP-γ2-GABAARs at excitatory synapses with the disrupting peptide TATD5Ct (10 µM); no change [2] [%] | diffusion coefficient median of extrasynaptic SEP-γ2-GABAARs after incubation with the disrupting peptide TATD5Ct (10 µM); control 4.11 10^−2 µm^2/s [3] [µm^2/s] | explored area of extrasynaptic SEP-γ2-GABAARs with the disrupting peptide TATD5Ct (10 µM); control 1.24 10^−2 µm^2 [3] [µm^2] | immobile fraction of extrasynaptic SEP-γ2-GABAARs with the disrupting peptide TATD5Ct (10 µM); control 25% [3] [%] | diffusion coefficient median of extrasynaptic D5Rs (D5R–YFP) after incubation with the disrupting peptide TATD5Ct (10 µM); control 7.42 10^−2 µm^2/s [4] [µm^2/s] | explored area of extrasynaptic D5Rs (D5R–YFP) with the disrupting peptide TATD5Ct (10 µM); control 2.37 10^−2 µm^2 [4] [µm^2] | immobile fraction of extrasynaptic D5Rs (D5R–YFP, single nanoparticle tracking) with the disrupting peptide TATD5Ct (10 µM); not changed [4] [%]
dopamine D5 receptor (endogenous) (from UniProt P25115 1-475) | 0.0578 | 0.0133 | 9 | 0.0412 | 0.0073 | 20 | 0.075 | 0.0245 | 17 |  |  | 
dopamine D5 receptor fused to the yellow fluorescent protein (YFP) (from UniProt P25115 1-475) |  |  |  |  |  |  |  |  |  | 0.103 | 0.0345 | 15
